Data reported in article PMC10533412, “Phosphoantigens glue butyrophilin 3A1 and 2A1 to activate Vγ9Vδ2 T cells” (Nature, 2023).

Assays:
[1] = target: BTN3A1 B30.2 domain, O00481; test: ITC; conditions: chain shown with the change; with HMBPP
[2] = target: BTN3A1 B30.2 domain (human) (UniProt O00481)
BTN3A1 B30.2 domain (human), sequence (O00481 328-513): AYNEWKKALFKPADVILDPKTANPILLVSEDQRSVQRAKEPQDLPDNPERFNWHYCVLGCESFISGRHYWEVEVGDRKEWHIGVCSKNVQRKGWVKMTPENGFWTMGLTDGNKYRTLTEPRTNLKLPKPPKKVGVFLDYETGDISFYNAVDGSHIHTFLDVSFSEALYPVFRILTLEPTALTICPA

BTN3A1 B30.2 domain, O00481, sequence (O00481 328-513): as above

B1: BTN2A2 B30.2 domain, Q8WVV5 W374R; M506T (protein)
chain: EELRWRRTFLHAADVVLDPDTAHPELFLSEDRRSVRRGPYRQRVPDNPERFDSQPCVLGRESFASGKHYWEVEVENVMVWTVGVCRHSVERKGEVLLIPQNGFWTLEMFGNQYRALSSPERILPLKESLCRVGVFLDYEAGDVSFYNMRDRSHIYTCPRSAFTVPVRPFFRLGSDDSPIFICPALTGASGVTVPEEGLKLHRVGTHQSL
Kd [1]: 189 nM

B2: BTN2A1 B30.2 domain (domain or fragment)
chain: EELRWRRTFLHAVDVVLDPDTAHPDLFLSEDRRSVRRCPFRHLGESVPDNPERFDSQPCVLGRESFASGKHYWEVEVENVIEWTVGVCRDSVERKGEVLLIPQNGFWTLEMHKGQYRAVSSPDRILPLKESLCRVGVFLDYEAGDVSFYNMRDRSHIYTCPRSAFSVPVRPFFRLGCEDSPIFICPALTGANGVTVPEEGLTLHRVGTHQSL
AFM-SCFS binding force between a Vγ9Vδ2 T cell and a MIA PaCa-2 cell, without and with HMBPP treatment [2]: 1550 pN
